Test results as given in patent US20250051433A1 (INMAGENE PTE, published 2025).

Legend:
[1] = target: T1, human long form TSLP expressed on cell membrane; assay: FACS on cells expressing the membrane human long-form TSLP fusion protein, MFI; unit taken from the concentration axis
T1 construct: also called membrane long-form huTSLP fusion protein; membrane long-form TSLP fusion protein

[2] = target: T1, human long form TSLP expressed on cell …; assay: as above; remark: listed apart in the source
[3] = target: T1, human long form TSLP expressed on cell …; assay: as above; remark: listed apart in the source
[4] = target: T2, mouse long-form TSLP protein (ACRO, tsp-m52h8) (mouse, UniProt Q9JIE6 20-140); assay: ELISA on coated mouse long-form TSLP
T2 construct: Bought; also called mouse TSLP
T2 sequence (looked up): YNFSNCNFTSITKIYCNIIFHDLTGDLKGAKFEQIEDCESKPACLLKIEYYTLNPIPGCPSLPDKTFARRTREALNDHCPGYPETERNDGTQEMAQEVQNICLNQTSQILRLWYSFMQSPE

[5] = target: T3, cynomolgus long-form TSLP protein (ACRO, tsp-c52h8) (cynomolgus monkey, UniProt A0A7N9CAT7 29-159); assay: ELISA on coated cynomolgus long-form TSLP, OD450; curve still rising at the highest concentration (about 1.2 at about 20 µg/mL, fitted Top 1.343); unit taken from the concentration axis
T3 construct: also called monkey long-form TSLP; Cyno TSLP
T3 sequence: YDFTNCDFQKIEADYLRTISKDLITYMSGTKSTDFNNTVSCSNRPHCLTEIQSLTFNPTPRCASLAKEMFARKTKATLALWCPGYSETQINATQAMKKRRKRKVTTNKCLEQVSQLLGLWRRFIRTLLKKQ

[6] = target: T1, human long form TSLP expressed on cell …; assay: FACS on cells expressing the membrane human long-form TSLP fusion protein, MFI; rising binding curve, but the table column is headed IC50; unit taken from the concentration axis
[7] = target: T1, human long form TSLP expressed on cell …; assay: FACS on cells expressing the membrane human long-form TSLP fusion protein, MFI; unit taken from the concentration axis; remark: listed apart in the source
[8] = target: T4, membrane short-form huTSLP fusion protein (human); assay: FACS on cells expressing membrane short-form huTSLP, MFI; ambiguous fit of a flat curve (Bottom 778.2, Top 872.2), see non_binding; unit taken from the concentration axis
T4 construct: also called human short form TSLP expressed on cell membrane
T4 sequence (chain, as listed by the source limits assumed): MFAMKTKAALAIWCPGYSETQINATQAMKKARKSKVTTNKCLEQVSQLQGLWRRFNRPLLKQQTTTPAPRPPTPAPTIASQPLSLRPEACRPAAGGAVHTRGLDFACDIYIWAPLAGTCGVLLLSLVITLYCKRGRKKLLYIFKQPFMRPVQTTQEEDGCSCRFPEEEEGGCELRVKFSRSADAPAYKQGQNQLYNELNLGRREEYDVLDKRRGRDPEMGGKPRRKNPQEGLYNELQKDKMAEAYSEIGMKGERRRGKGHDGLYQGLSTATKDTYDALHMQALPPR

T1 sequence (chain, as listed by the source): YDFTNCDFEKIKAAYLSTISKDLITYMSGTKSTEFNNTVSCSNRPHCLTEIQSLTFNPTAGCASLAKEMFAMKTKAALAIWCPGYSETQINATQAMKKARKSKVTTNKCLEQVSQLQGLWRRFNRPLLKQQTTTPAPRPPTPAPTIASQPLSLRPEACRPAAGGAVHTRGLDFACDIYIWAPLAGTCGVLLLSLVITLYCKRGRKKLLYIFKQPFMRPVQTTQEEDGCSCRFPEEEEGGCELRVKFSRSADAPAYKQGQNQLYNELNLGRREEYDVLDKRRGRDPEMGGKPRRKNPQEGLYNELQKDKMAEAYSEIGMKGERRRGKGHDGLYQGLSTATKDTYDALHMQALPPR

B1: AMG 157 (antibody, human IgG2, lambda, V domains shown)
VH: QMQLVESGGGVVQPGRSLRLSCAASGFTFRTYGMHWVRQAPGKGLEWVAVIWYDGSNKHYADSVKGRFTITRDNSKNTLNLQMNSLRAEDTAVYYCARAPQWELVHEAFDIWGQGTMVTVSS
VL: SYVLTQPPSVSVAPGQTARITCGGNNLGSKSVHWYQQKPGQAPVLVVYDDSDRPSWIPERFSGSNSGNTATLTISRGEAGDEADYYCQVWDSSSDHVVFGGGTKLTVLG
notes: also called BMK; benchmark
[1]
  EC50: 0.156 µg/mL
[2]
  EC50: 0.0712 µg/mL
[3]
  EC50: 0.219 µg/mL
[4]
  binding result: no binding (tested: about 20 µg/mL)
[5]
  EC50: 1.24 µg/mL
[6]
  EC50: 0.515 µg/mL
[7]
  EC50: 0.0466 µg/mL
[8]
  EC50: ~13.5 µg/mL
